Results taken from paper PMC7376557.

Target: SasC aggregation domain (S. aureus surface protein C), His-tagged (S. aureus strain N315)
Experiment: SEC-MALS; FPLC-MALS (Wyatt Technology) of the purified His-tagged SasC aggregation domain; superpolymer of about 1,610 kDa against 41.5 kDa for the domain

SasC aggregation domain (S. aureus surface protein C), His-tagged (domain or fragment)
stoichiometry N: > 35
